Measurements: article PMC12268258
Like-named read-outs stand apart in the source and are kept apart here.

Tests used:
Test in all cases: BLI
HB125scFv-2 D33H/E56H [1] = molecular target: HB125scFv-2 D33H/E56H
HB125scFv-2 D33H [2] = molecular target: HB125scFv-2 D33H
HB125scFv-2 E56H [3] = molecular target: HB125scFv-2 E56H
HB125scFv-2 N54H [4] = molecular target: HB125scFv-2 N54H
HB125scFv-2 T32H [5] = molecular target: HB125scFv-2 T32H
HB125scFv-2 Y242H [6] = molecular target: HB125scFv-2 Y242H
HB125scFv-2 D33H/E56H [7] = molecular target: HB125scFv-2 D33H/E56H; remark: listed apart in the source
HB125scFv-2 D33H [8] = molecular target: HB125scFv-2 D33H; remark: listed apart in the source
HB125scFv-2 E56H [9] = molecular target: HB125scFv-2 E56H; remark: listed apart in the source
HB125scFv-2 N54H [10] = molecular target: HB125scFv-2 N54H; remark: listed apart in the source
HB125scFv-2 T32H [11] = molecular target: HB125scFv-2 T32H; remark: listed apart in the source
HB125scFv-2 Y242H [12] = molecular target: HB125scFv-2 Y242H; remark: listed apart in the source
HB125scFv-2 T32H [13] = molecular target: HB125scFv-2 T32H; remark: listed apart in the source

Kd (HB125scFv-2 D33H/E56H [1]): 250 nM
koff (HB125scFv-2 D33H/E56H [1]): 0.00557 s⁻¹
kon (HB125scFv-2 D33H/E56H [1]): 23700 M⁻¹ s⁻¹
Kd (HB125scFv-2 D33H [2]): 36 nM
koff (HB125scFv-2 D33H [2]): 0.00176 s⁻¹
kon (HB125scFv-2 D33H [2]): 60500 M⁻¹ s⁻¹
Kd (HB125scFv-2 E56H [3]): 160 nM
koff (HB125scFv-2 E56H [3]): 0.0058 s⁻¹
kon (HB125scFv-2 E56H [3]): 43400 M⁻¹ s⁻¹
Kd (HB125scFv-2 N54H [4]): 165 nM
koff (HB125scFv-2 N54H [4]): 0.00341 s⁻¹
kon (HB125scFv-2 N54H [4]): 26000 M⁻¹ s⁻¹
Kd (HB125scFv-2 T32H [5]): 17.4 nM
koff (HB125scFv-2 T32H [5]): 0.00166 s⁻¹
kon (HB125scFv-2 T32H [5]): 89700 M⁻¹ s⁻¹
Kd (HB125scFv-2 Y242H [6]): 478 nM
koff (HB125scFv-2 Y242H [6]): 0.00854 s⁻¹
kon (HB125scFv-2 Y242H [6]): 18800 M⁻¹ s⁻¹
Kd (HB125scFv-2 D33H/E56H [7]): 426 nM
koff (HB125scFv-2 D33H/E56H [7]): 0.0073 s⁻¹
kon (HB125scFv-2 D33H/E56H [7]): 19100 M⁻¹ s⁻¹
Kd (HB125scFv-2 D33H [8]): 51.7 nM
koff (HB125scFv-2 D33H [8]): 0.00154 s⁻¹
kon (HB125scFv-2 D33H [8]): 27800 M⁻¹ s⁻¹
Kd (HB125scFv-2 E56H [9]): 548 nM
koff (HB125scFv-2 E56H [9]): 0.00577 s⁻¹
kon (HB125scFv-2 E56H [9]): 12700 M⁻¹ s⁻¹
Kd (HB125scFv-2 N54H [10]): 206 nM
koff (HB125scFv-2 N54H [10]): 0.00286 s⁻¹
kon (HB125scFv-2 N54H [10]): 15700 M⁻¹ s⁻¹
Kd (HB125scFv-2 T32H [11]): 146 nM
koff (HB125scFv-2 T32H [11]): 0.00351 s⁻¹
kon (HB125scFv-2 T32H [11]): 42900 M⁻¹ s⁻¹
percent change of wavelength shift, association 0.5 μM → 1 μM (HB125scFv-2 T32H [11]): 57%
percent change of wavelength shift, association 1 μM → 0.5 μM (HB125scFv-2 T32H [11]): 23%
percent change of wavelength shift, association 1 μM → 2 μM (HB125scFv-2 T32H [11]): 49%
percent change of wavelength shift, association 2 μM → 1 μM (HB125scFv-2 T32H [11]): 21%
percent change of wavelength shift, average association (HB125scFv-2 T32H [11]): 37%
percent change of wavelength shift, average dissociation (HB125scFv-2 T32H [11]): -21%
percent change of wavelength shift, dissociation 0.5 μM → 0 μM (first) (HB125scFv-2 T32H [11]): -22%
percent change of wavelength shift, dissociation 0.5 μM → 0 μM (second) (HB125scFv-2 T32H [11]): -17%
percent change of wavelength shift, dissociation 1 μM → 0 μM (first) (HB125scFv-2 T32H [11]): -23%
percent change of wavelength shift, dissociation 1 μM → 0 μM (second) (HB125scFv-2 T32H [11]): -22%
percent change of wavelength shift, dissociation 2 μM → 0 μM (HB125scFv-2 T32H [11]): -20%
Kd (HB125scFv-2 Y242H [12]): 1480 nM
koff (HB125scFv-2 Y242H [12]): 0.012 s⁻¹
kon (HB125scFv-2 Y242H [12]): 8040 M⁻¹ s⁻¹
percent change of wavelength shift, association 0.5 μM → 1 μM (HB125scFv-2 T32H [13]): 31%
percent change of wavelength shift, association 1 μM → 0.5 μM (HB125scFv-2 T32H [13]): 15%
percent change of wavelength shift, association 1 μM → 2 μM (HB125scFv-2 T32H [13]): 39%
percent change of wavelength shift, association 2 μM → 1 μM (HB125scFv-2 T32H [13]): 20%
percent change of wavelength shift, average association (HB125scFv-2 T32H [13]): 26%
percent change of wavelength shift, average dissociation (HB125scFv-2 T32H [13]): -17%
percent change of wavelength shift, dissociation 0.5 μM → 0 μM (first) (HB125scFv-2 T32H [13]): -18%
percent change of wavelength shift, dissociation 0.5 μM → 0 μM (second) (HB125scFv-2 T32H [13]): -11%
percent change of wavelength shift, dissociation 1 μM → 0 μM (first) (HB125scFv-2 T32H [13]): -15%
percent change of wavelength shift, dissociation 1 μM → 0 μM (second) (HB125scFv-2 T32H [13]): -18%
percent change of wavelength shift, dissociation 2 μM → 0 μM (HB125scFv-2 T32H [13]): -21%
Substance: human insulin (from UniProt P01308 90-110; P01308 25-54) (natural protein)
